Where two headings read alike, the source gives them in different places.
Assays:
[1] = molecular target: pFAγ::NifD::FLAG fusion polypeptide (Klebsiella pneumoniae (NifD part); Arabidopsis thaliana (pFAγ MTP)); test: cell-based or functional assay
[2] = system: pFAγ::NifD::HA fusion polypeptide
[3] = molecular target: T1, FAγ^51::NifD::HA fusion polypeptide (constructs SN6, SN7, SN8)
T1 chain: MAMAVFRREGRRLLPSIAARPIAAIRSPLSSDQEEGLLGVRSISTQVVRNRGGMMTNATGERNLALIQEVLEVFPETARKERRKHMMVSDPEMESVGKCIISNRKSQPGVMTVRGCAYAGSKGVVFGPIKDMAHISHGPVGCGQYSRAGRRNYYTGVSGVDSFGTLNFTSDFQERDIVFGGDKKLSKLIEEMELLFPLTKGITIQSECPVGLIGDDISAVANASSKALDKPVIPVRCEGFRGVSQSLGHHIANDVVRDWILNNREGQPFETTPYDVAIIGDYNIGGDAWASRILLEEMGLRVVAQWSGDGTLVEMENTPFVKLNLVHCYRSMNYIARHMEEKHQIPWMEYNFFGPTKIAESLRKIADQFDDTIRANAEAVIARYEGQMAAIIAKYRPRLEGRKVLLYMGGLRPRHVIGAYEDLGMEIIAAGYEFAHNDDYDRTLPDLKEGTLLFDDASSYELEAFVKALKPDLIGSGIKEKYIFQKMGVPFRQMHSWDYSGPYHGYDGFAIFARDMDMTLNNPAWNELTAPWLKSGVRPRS

[4] = molecular target: T2, pFAγ::NifD::HA fusion polypeptide
T2 chain: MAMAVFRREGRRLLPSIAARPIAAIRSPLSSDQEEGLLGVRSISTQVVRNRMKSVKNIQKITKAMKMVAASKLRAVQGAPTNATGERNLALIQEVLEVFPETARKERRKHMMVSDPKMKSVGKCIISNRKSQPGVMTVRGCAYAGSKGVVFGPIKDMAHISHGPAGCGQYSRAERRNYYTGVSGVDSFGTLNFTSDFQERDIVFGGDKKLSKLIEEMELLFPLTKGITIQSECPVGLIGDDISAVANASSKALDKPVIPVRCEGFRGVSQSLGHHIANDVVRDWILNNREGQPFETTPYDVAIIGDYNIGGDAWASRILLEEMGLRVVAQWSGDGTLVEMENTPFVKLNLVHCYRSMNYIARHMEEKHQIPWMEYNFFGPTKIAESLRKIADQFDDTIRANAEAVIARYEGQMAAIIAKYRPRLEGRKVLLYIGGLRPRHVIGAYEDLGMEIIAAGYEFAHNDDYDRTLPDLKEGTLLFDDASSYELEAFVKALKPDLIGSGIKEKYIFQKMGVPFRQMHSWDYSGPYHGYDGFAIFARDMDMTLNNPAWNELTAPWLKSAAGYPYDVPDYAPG

[5] = molecular target: NifD polypeptide encoded by pMIT2.1 (wild-type nitrogenase gene cluster) in E. coli, P00466
Chain of NifD polypeptide encoded by pMIT2.1 (wild-type nitrogenase gene cluster) in E. coli, P00466 (P00466 whole entry, looked up): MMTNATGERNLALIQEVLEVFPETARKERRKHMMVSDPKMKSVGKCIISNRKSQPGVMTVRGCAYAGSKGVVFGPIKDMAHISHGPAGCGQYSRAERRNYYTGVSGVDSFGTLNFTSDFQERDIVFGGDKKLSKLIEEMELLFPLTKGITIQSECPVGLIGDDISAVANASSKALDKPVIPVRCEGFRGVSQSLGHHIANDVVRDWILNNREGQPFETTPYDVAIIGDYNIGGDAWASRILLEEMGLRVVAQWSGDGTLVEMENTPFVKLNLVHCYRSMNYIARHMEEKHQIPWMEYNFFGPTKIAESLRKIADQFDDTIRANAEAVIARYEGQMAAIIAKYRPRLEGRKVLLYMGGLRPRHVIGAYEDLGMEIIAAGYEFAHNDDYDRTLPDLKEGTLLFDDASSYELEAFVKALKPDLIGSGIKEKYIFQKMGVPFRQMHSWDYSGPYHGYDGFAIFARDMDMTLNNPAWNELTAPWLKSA

[6] = molecular target: the molecule itself; test: SDS-PAGE and Western blot of N. benthamiana leaf extracts; self-association (band at about double the molecular weight)

pFAγ::NifK fusion polypeptide (pRA25), lacking any C-terminal extension (enzyme)
level of NifD::FLAG accumulation (band intensity normalised to a background band, Western blot anti-FLAG), co-expression with pRA25 against pRA11 (NifK with C-terminal extension) [1]: 50%

pFAγ::NifH::HA fusion polypeptide
extent of MTP processing of NifD::HA on co-expression (Western blot) [2]: the extent of processing of the MTP sequence fused to NifD::HA was increased in the presence of the NifK and NifH polypeptides

B1: pFAγ::NifK fusion polypeptide (pRA25), lacking any C-terminal extension (protein)
chain: MAMAVFRREGRRLLPSIAARPIAAIRSPLSSDQEEGLLGVRSISTQVVRNRMKSVKNIQKITKAMKMVAASKLRAVQGAPSQTIDKINSCYPLFEQDEYQELFRNKRQLEEAHDAQRVQEVFAWTTTAEYEALNFRREALTVDPAKACQPLGAVLCSLGFANTLPYVHGSQGCVAYFRTYFNRHFKEPIACVSDSMTEDAAVFGGNNNMNLGLQNASALYKPEIIAVSTTCMAEVIGDDLQAFIANAKKDGFVDSSIAVPHAHTPSFIGSHVTGWDNMFEGFAKTFTADYQGQPGKLPKLNLVTGFETYLGNFRVLKRMMEQMAVPCSLLSDPSEVLDTPADGHYRMYSGGTTQQEMKEAPDAIDTLLLQPWQLLKSKKVVQEMWNQPATEVAIPLGLAATDELLMTVSQLSGKPIADALTLERGRLVDMMLDSHTWLHGKKFGLYGDPDFVMGLTRFLLELGCEPTVILSHNANKRWQKAMNKMLDASPYGRDSEVFINCDLWHFRSLMFTRQPDFMIGNSYGKFIQRDTLAKGKAFEVPLIRLGFPLFDRHHLHRQTTWGYEGAMNIVTTLVNAVLEKLDSDTSQLGKTDYSFDLVR
NifD::HA abundance and ratio of processed to unprocessed NifD on co-infiltration (SDS-PAGE, Western blot anti-HA) [3]: the addition of pRA25 in each case greatly enhanced NifD abundance, particularly for the combination of SN7 and pRA25. Most importantly, the ratio of processed to unprocessed NifD was enhanced by the addition of pRA25. | amount of the approximately 48 kDa NifD::HA degradation product on co-expression (Western blot anti-HA) [3]: the amount of this product was also enhanced by co-expression of pRA25 (NifK) | extent of MTP processing of NifD::HA on co-expression (Western blot) [4]: the extent of processing of the MTP sequence fused to NifD::HA was increased in the presence of the NifK and NifH polypeptides

B2: modified NifK polypeptide having a 9 amino acid C-terminal extension (YPYDVPDYA), encoded by modified pMIT2.1 (protein)
chain: MSQTIDKINSCYPLFEQDEYQELFRNKRQLEEAHDAQRVQEVFAWTTTAEYEALNFRREALTVDPAKACQPLGAVLCSLGFANTLPYVHGSQGCVAYFRTYFNRHFKEPIACVSDSMTEDAAVFGGNNNMNLGLQNASALYKPEIIAVSTTCMAEVIGDDLQAFIANAKKDGFVDSSIAVPHAHTPSFIGSHVTGWDNMFEGFAKTFTADYQGQPGKLPKLNLVTGFETYLGNFRVLKRMMEQMAVPCSLLSDPSEVLDTPADGHYRMYSGGTTQQEMKEAPDAIDTLLLQPWQLLKSKKVVQEMWNQPATEVAIPLGLAATDELLMTVSQLSGKPIADALTLERGRLVDMMLDSHTWLHGKKFGLYGDPDFVMGLTRFLLELGCEPTVILSHNANKRWQKAMNKMLDASPYGRDSEVFINCDLWHFRSLMFTRQPDFMIGNSYGKFIQRDTLAKGKAFEVPLIRLGFPLFDRHHLHRQTTWGYEGAMNIVTTLVNAVLEKLDSDTSQLGKTDYSFDLVRYPYDVPDYA
ethylene production in acetylene reduction assay (E. coli DH5α, modified pMIT2.1 + pN249) [5]: the 9-amino acid C-terminal extension added to NifK completely abolished ethylene production

B3: pFAγ::NifB::HA fusion polypeptide (enzyme)
chain: ISTQVVRNRMKSVKNIQKITKAMKMVAASKLRAVQGAPTSCSSFSGGKACRPADDSALTPLVADKAAAHPCYSRHGHHRFARMHLPVAPACNLQCNYCNRKFDCSNESRPGVSSTLLTPEQAVVKVRQVAQAIPQLSVVGIAGPGDPLANIARTFRTLELIREQLPDLKLCLSTNGLVLPDAVDRLLDVGVDHVTVTINTLDAEIAAQIYAWLWLDGERYSGREAGEILIARQLEGVRRLTAKGVLVKINSVLIPGINDSGMAGVSRALRASGAFIHNIMPLIARPEHGTVFGLNGQPEPDAETLAATRSRCGEVMPQMTHCHQCRADAIGMLGEDRSQQFTQLPAPESLPAWLPILHQRAQLHASIATRGESEADDACLVAVASSRGDVIDCHFGHADRFYIYSLSAAGMVLVNERFTPKYCQGRDDCEPQDNAARFAAILELLADVKAVFCVRIGHTPWQQLEQEGIEPCVDGAWRPVSEVLPAWWQQRRGSWPAALPHKGVAAGGGGGYPYDVPDYAPG
notes: Expressed in N. benthamiana; also called pRA03
binding result [6]: binds

B4: pFAγ::NifS::HA fusion polypeptide (enzyme)
chain: ISTQVVRNRMKSVKNIQKITKAMKMVAASKLRAVQGAPKQVYLDNNATTRLDPMVLEAMMPFLTDFYGNPSSIHDFGIPAQAALERAHQQAAALLGAEYPSEIIFTSCATEATATAIASAIALLPERREIITSVVEHPATLAACEHMEREGYRIHRIAVDGEGALDMAQFRAALSPRVALVSVMWANNETGVLFPIGEMAELAHEQGALFHCDAVQVVGKIPIAVGQTRIDMLSCSAHKFHGPKGVGCLYLRRGTRFRPLLRGGHQEYGRRAGTENICGIVGMGAACELANIHLPGMTHIGQLRNRLEHRLLASVPSVMVMGGGQPAVPGTVNLAFEFIEGEAILLLLNQAGIAASSGSACTSGSLEPSHVMRAMNIPYTAAHGTIRFSLSRYTREKEIDYVVATLPPIIDRLRALSPYWQNGKPRPADAVFTPVYGAGGGGGYPYDVPDYAPG
notes: Expressed in N. benthamiana; also called pRA16
binding result [6]: binds

B5: pFAγ::NifY::HA fusion polypeptide (other)
chain: ISTQVVRNRMKSVKNIQKITKAMKMVAASKLRAVQGAPSDNDTLFWRMLALFQSLPDLQPAQIVDWLAQESGETLTPERLATLTQPQLAASFPSATAVMSPARWSRVMASLQGALPAHLRIVRPAQRTPQLLAAFCSQDGLVINGHFGQGRLFFIYAFDEQGGWLYDLRRYPSAPHQQEANEVRARLIEDCQLLFCQEIGGPAAARPIRHRIHPMKAQPGTTIQAQCEAINTLLAGRLPPWLAKRLNRDNPLEERVFAGGGGGYPYDVPDYAPG
notes: Expressed in N. benthamiana; also called pRA12
binding result [6]: binds

— patent publication US20200095598A1 (COMMONWEALTH SCIENTIFIC AND INDUSTRIAL RESEARCH ORGANISATION, published 2020)
